Experimental data as given in PMC9478404.

How the values were obtained:
Assay in all cases: ITC; DBD (500 μM) titrated into NRD (50 μM) at 19 °C; 150 mM NaCl, 20 mM Tris, 1 mM BME (pH 8); MicroCal VP-ITC; mean of three technical replicates
[1] = target: B-Myb NRD^510–600 T538A (human) (UniProt P10244)
[2] = target: B-Myb NRD^510–600 (C-terminal half of the NRD) (human) (UniProt P10244)
[3] = target: B-Myb NRD^510–600 S577A (human) (UniProt P10244)
Chain of B-Myb NRD^510–600 S577A (human) (P10244 510-600 S577A): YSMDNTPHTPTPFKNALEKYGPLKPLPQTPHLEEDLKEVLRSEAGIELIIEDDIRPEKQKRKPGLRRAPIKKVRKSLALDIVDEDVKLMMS

Chain of B-Myb NRD^510–600 T538A (human) (P10244 510-600 T538A): as the sequence (P10244 510-600 S577A) above, with T29A, A68S counted along it
Chain of B-Myb NRD^510–600 (C-terminal half of the NRD) (human) (P10244 510-600): as the sequence (P10244 510-600 S577A) above, with A68S counted along it

Substance: B-Myb DNA-binding domain (B-Myb^34–183) (from UniProt P10244-1 34-183) (domain or fragment)
- Kd [1]: 6.5 µM
- Kd [2]: 4.9 µM
- Kd [3]: 3.2 µM
